Test results as given in patent publication US12397036B2, “Peptide exchange protein” (Cambridge Enterprise Limited, priority 2018, dated 2025).

Tests used:
[1] = target: T1, surface MHC class I molecules (HLA-A*68:02) on HeLaM cells (Homo sapiens, UniProt P04439, A269V/D140Y/D185E/E176V/E277Q/E87N/F33Y/G231S/I121R/I166T/I218V/L180W/L300P/L318F/N151K/P208A/P217A/Q86R/R138H/R169H/S129P/T345S/V36M); experiment: Binding of exogenous soluble TAPBPR to cells (PeTe-4 staining); settings: 100 nM, 15 min, 37° C.
T1 construct: HLA-A68 (MHC class I) expressed on HeLa; endogenous in cells; host or cells: HeLaM and derivatives (TAPBPR-KO with or without TAPBPR/tapasin constructs, +Her2, Her2-KO, +PDL1, pD-GFP); in some arms HeLaM-HLA-ABC-KO re-expressing HLA-A*68:02
Experimental: (§1) (g) Dose response curves of IFN-γ treated HeLaM and HeLaM-HLA-ABC^KO cells treated −/+100 nM TAPBPR with increasing concentrations of ETVSK*QSNV for 15 min at 37° C. Line graphs show MFI−/+s.e.m from three independent experiments. […] (h) Histograms of the typical fluorescent peptide binding observed using flow cytometry. (i) Bar graphs showing the MFI of fluorescent peptide binding to HeLaM HLA-ABC^KO+A2−/+s.e.m from two independent experiments with duplicates. ***P≤0.001, ****P≤0.0001, n/s not significant, using unpaired two-tailed t-test.
(§2) Following trypsinisation, cells were washed in 1% bovine serum albumin (BSA), dissolved in 1×PBS at 4° C. and then stained for 30 min at 4° C. in 1% BSA containing one of the following antibodies: W6/32, pete4, pasta-1, anti-HLA-A68-reactive mAb, BB7.2 or with an isotype control antibody. After washing the cells to remove excess unbound antibody, the primary antibodies bound to the cells were detected by incubation at 4° C. for 25 min with either goat anti-mouse Alexa-Fluor 647 IgG (Invitrogen Molecular Probes, Thermo Fisher Scientific) or with Alexa-Fluor 647-conjugated streptavidin (Invitrogen Molecular Probes, Thermo Fisher […]

[2] = test system: surface MHC class I molecules (HLA-A*68:02) on HeLaM cells; experiment: as above; design: species or system human; settings: cells lacking classical MHC class I expression
Experimental: as §1, §2

[3] = target: T2, HLA-A68 (MHC class I) expressed on HeLa (Homo sapiens, UniProt P04439, A269V/D140Y/D185E/E176V/E277Q/E87N/F33Y/G231S/I121R/I166T/I218V/L180W/L300P/L318F/N151K/P208A/P217A/Q86R/R138H/R169H/S129P/T345S/V36M); experiment: ETV* peptide loading on HeLaM and HeLaM-pD-GFP cells; format: cell-based; settings: 1 nM recombinant protein
T2 construct: HLA-A68 (MHC class I) expressed on HeLa; endogenous in cells; host or cells: HeLaM and derivatives (TAPBPR-KO with or without TAPBPR/tapasin constructs, +Her2, Her2-KO, +PDL1, pD-GFP); in some arms HeLaM-HLA-ABC-KO re-expressing HLA-A*68:02

H-2K^b expressed on EL4 = target: T3, H-2K^b expressed on EL4 (Mus musculus, UniProt P01901); experiment: […] loading on EL4 cells (SIINFEK*L and 25-D1.16 mAb); format: cell-based, murine; settings: 1 μM TAPBPR, 1 nM peptide 30 min
T3 construct: surface expressed H-2K^b are relatively more peptide receptive compared to human MHC I molecules; endogenous in cells; host or cells: EL4 (murine tumour cell line)
T3 sequence (P01901 22-369): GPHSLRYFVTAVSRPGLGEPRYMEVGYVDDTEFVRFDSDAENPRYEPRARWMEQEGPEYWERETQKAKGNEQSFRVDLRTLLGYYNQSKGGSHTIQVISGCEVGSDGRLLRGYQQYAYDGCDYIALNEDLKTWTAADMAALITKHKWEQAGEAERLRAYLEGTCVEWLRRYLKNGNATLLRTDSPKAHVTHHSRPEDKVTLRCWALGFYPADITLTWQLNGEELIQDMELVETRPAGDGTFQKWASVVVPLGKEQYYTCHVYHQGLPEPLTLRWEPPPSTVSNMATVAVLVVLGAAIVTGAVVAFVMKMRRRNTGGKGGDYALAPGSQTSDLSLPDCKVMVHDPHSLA
T3 sequence (P01887 21-119 partner): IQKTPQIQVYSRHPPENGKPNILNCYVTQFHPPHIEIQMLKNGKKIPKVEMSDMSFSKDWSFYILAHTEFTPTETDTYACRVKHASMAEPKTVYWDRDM
Experimental: Histograms are representative of three independent experiments. (19d) Bar graphs show the MFI of 25-D1.16−/+SD from three independent experiments. (19e) OT1 killing of EL4 cells treated −/+1 μM soluble TAPBPR^WT or TAPBPR^TN5, followed by incubation with 1 nM […] peptide. Error bars−/+s.e.m from triplicate wells. Data is representative of three independent experiments. Note: surface expressed H-2K^b are relatively more peptide receptive compared to human MHC I molecules. […] As OT1 T cells are highly efficient cytotoxic cells, killing 80-100% of targets after 1-4 hours, we decreased the concentration of […] used in these experiments to 1 nM in order to differentiate between TAPBPR-mediated and background peptide binding, otherwise we would not observe an additive effect of soluble TAPBPR on target cell killing.

B1: soluble TAPBPR^WT: secreted His-tagged luminal domain of human TAPBPR, lacking transmembrane domain and cytoplasmic tail; SEQ ID NO: 2 (protein)
chain: KPHPAEGQWRAVDVVLDCFLVKDGAHRGALASSEDRARASLVLKQVPVLDDGSLEDFTDFQGGTLAQDDPPIIFEASVDLVQIPQAEALLHADCSGKEVTCEISRYFLQMTETTVKTAAWFMANVQVSGGGPSISLVMKTPRVAKNEVLWHPTLNLPLSPQGTVRTAVEFQVMTQTQSLSFLLGSSASLDCGFSMAPGLDLISVEWRLQHKGRGQLVYSWTAGQGQAVRKGATLEPAQLGMARDASLTLPGLTIQDEGTYICQITTSLYRAQQIIQLNIQASPKVRLSLANEALLPTLICDIAGYYPLDVVVTWTREELGGSPAQVSGASFSSLRQSVAGTYSISSSLTAEPGSAGATYTCQVTHISLEEPLGASTQVVPPERR
modifications: His tag; TAPBPR luminal domain (mature sequence without 21 aa leader sequence)
[1]
  binding of exogenous TAPBPR to HeLaM cells: clearly detectable on the cell surface
[2]
  binding of exogenous TAPBPR to HeLaM-HLA-ABC^KO cells: could no longer bind
[3]
  exogenous peptide loading onto antibody-target expressing cells at 1 nM protein: no peptide loading
H-2K^b expressed on EL4
  loading of SIINFEKL onto H-2K^b: significantly enhanced the loading of SIINFEKL
